Experimental data: the supplement of paper PMC7877785
± gives the uncertainty stated by the source.

Test: self-splicing fitness, log relative to wild type (ln ratio); higher = more splicing; Tetrahymena group I intron in knt gene, E. coli kanamycin selection, DiMSum; sequences stand for … in CUCUCU…GGAGGGAAAAGUUAUCAGGCAUGCACCUGGUAGCUAGUCUUUAAACCAAUAGAUUGCAUCGGUUUAAAAGGCAAGACCGUCAAAUUGCGGGAAAGGGGUCAACAGCCGUUCAGUACCAAGUCUCAGGGGAAACUUUGAGAUGGCCUUGCAAAGGGUAUGGUAAUAAGCUGACGGACAUGGUCCUAACCACGCAGCCAAGUCCUAAGUCAACAGAUCUUCUGUUGAUAUGGAUGCAGUUCACAGACUAAAUGUCGGUCGGGGAAGAUGUAUUCUUCUCAUAAGAUAUAGUCGGACCUCUCCUUAAUGGGAGCUAGCGGAUGAAGUGAUGCAACACUGGAGCCGCUGGGAACUAAUUUGUAUGCGAAAGUAUAUUGAUUAGUUUUGGAGUACUCGUGGUCG
Procedure, shortened: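 Pooled colonies went to amplicon sequencing on an Illumina HiSeq 2500 after six replicate transformations. The plates were LB agar with 100 μg/mL carbenicillin, 50 μM IPTG and 0.2% rhamnose, with or without 25 μg/mL kanamycin, incubated overnight at 37°C or 30°C. The E. coli BL21(DE3) library had all eight P1ex-region intron nucleotides randomised, the intron placed in the knt kanamycin-resistance gene on pET-22b(+). DiMSum fitness is the error-weighted combination of replicate fold changes, kanamycin against none, normalised to wild type.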

Sequence | self-splicing fitness (ln) (37 °C) | self-splicing fitness (ln) (30 °C)
GCAGAGCAAUAUUACGCUAA | -2.95 ± 0.43 | –
GCAGAGCAAUAUUACGGAGG | -2.14 ± 0.15 | -5.06 ± 0.25
GCAGAGCAAUAUUACGGCAC | -1.42 ± 0.26 | -1.64 ± 0.17
GCAGAGCAAUAUUACGGCUA | -0.385 ± 0.11 | -1.53 ± 0.14
GCAGAGCAAUAUUACGGGAC | -1.65 ± 0.11 | -3.3 ± 0.14
GCAGAGCAAUAUUACGUAUU | -1.9 ± 0.16 | -3.82 ± 0.23
GCAUAGCAAUAUUACGAAAA | 0.492 ± 0.27 | –
GCAUAGCAAUAUUACGACAA | -0.595 ± 0.13 | -2.27 ± 0.19
GCAUAGCAAUAUUACGACUA | 0.00165 ± 0.2 | -0.161 ± 0.23
GCAUAGCAAUAUUACGAGCU | -1.31 ± 0.15 | -3.2 ± 0.19
GCAUAGCAAUAUUACGAGUC | -2.7 ± 0.17 | -2.44 ± 0.12
GCAUAGCAAUAUUACGCAAA | -0.928 ± 0.24 | -1.88 ± 0.39
GCAUAGCAAUAUUACGCACG | -2.05 ± 0.22 | -2 ± 0.17
GCAUAGCAAUAUUACGCAUA | -1.16 ± 0.12 | -2.29 ± 0.15
GCAUAGCAAUAUUACGCCCG | -0.11 ± 0.32 | -1.24 ± 0.32
GCAUAGCAAUAUUACGCGUC | -2.97 ± 0.4 | -3.3 ± 0.2
GCAUAGCAAUAUUACGGACU | -0.121 ± 0.15 | 0.021 ± 0.15
GCAUAGCAAUAUUACGGGUU | -0.302 ± 0.088 | -1.79 ± 0.091
GCAUAGCAAUAUUACGGUUC | -0.892 ± 0.13 | -2.21 ± 0.12
GCAUAGCAAUAUUACGUAGU | -1.51 ± 0.16 | -2.22 ± 0.15
GCAUAGCAAUAUUACGUCAC | -2.08 ± 0.22 | -3.21 ± 0.16
GCAUAGCAAUAUUACGUCCA | -0.447 ± 0.18 | -1.49 ± 0.21
GCAUAGCAAUAUUACGUCGC | -2.32 ± 0.45 | -1.2 ± 0.28
GCAUAGCAAUAUUACGUGGA | -1.75 ± 0.17 | -3.06 ± 0.25

Sequence | self-splicing fitness (ln) (37 °C) | self-splicing fitness (ln) (30 °C)
GCAUAGCAAUAUUACGUUAC | -1.85 ± 0.4 | -2.15 ± 0.41
GCAUAGCAAUAUUACGUUGA | -1.76 ± 0.1 | -2.41 ± 0.12
GCAUAGCAAUAUUACGUUGU | -2.74 ± 0.19 | -3.21 ± 0.17
GCCAAGCAAUAUUACGAAGA | -1.39 ± 0.17 | -2.96 ± 0.21
GCCAAGCAAUAUUACGAAUG | -1.84 ± 0.16 | -3.56 ± 0.2
GCCAAGCAAUAUUACGAUUG | -2.12 ± 0.34 | -4.04 ± 0.4
GCCAAGCAAUAUUACGCCCA | -0.6 ± 0.12 | -1.18 ± 0.1
GCCAAGCAAUAUUACGCGUA | -0.13 ± 0.089 | -0.871 ± 0.089
GCCAAGCAAUAUUACGCUAC | -2.22 ± 0.16 | -4.34 ± 0.42
GCCAAGCAAUAUUACGCUAU | -0.923 ± 0.078 | -1.23 ± 0.064
GCCAAGCAAUAUUACGCUGA | -0.943 ± 0.15 | -1.4 ± 0.1
GCCAAGCAAUAUUACGGAUA | -0.65 ± 0.073 | -0.904 ± 0.069
GCCAAGCAAUAUUACGGCAG | -2.54 ± 0.23 | -3.71 ± 0.19
GCCAAGCAAUAUUACGGUCC | -0.771 ± 0.11 | -2.49 ± 0.11
GCCAAGCAAUAUUACGUCAC | -1.8 ± 0.16 | -3.8 ± 0.19
GCCAAGCAAUAUUACGUCGC | -1.23 ± 0.1 | -2.63 ± 0.14
GCCAAGCAAUAUUACGUCUA | -1.08 ± 0.1 | -1.15 ± 0.11
GCCAAGCAAUAUUACGUCUC | -0.174 ± 0.087 | -0.775 ± 0.067
GCCAAGCAAUAUUACGUUGU | -0.73 ± 0.072 | -1.79 ± 0.064
GCCCAGCAAUAUUACGAAAG | -2.07 ± 0.19 | -2.48 ± 0.12
GCCCAGCAAUAUUACGAAUU | -0.934 ± 0.094 | -2.18 ± 0.077
GCCCAGCAAUAUUACGAGCA | -0.143 ± 0.091 | -1.49 ± 0.11
GCCCAGCAAUAUUACGAGCG | -1.17 ± 0.1 | -0.449 ± 0.067
GCCCAGCAAUAUUACGAGGC | -2.5 ± 0.22 | -3.64 ± 0.2

Sequence | self-splicing fitness (ln) (37 °C) | self-splicing fitness (ln) (30 °C)
GCCCAGCAAUAUUACGAUGC | 0.257 ± 0.076 | -0.328 ± 0.055
GCCCAGCAAUAUUACGAUGG | -2.98 ± 0.18 | -3.53 ± 0.14
GCCCAGCAAUAUUACGCAGA | -3.47 ± 0.42 | -3.37 ± 0.28
GCCCAGCAAUAUUACGCCAC | -2.44 ± 0.18 | -4.89 ± 0.38
GCCCAGCAAUAUUACGCGUG | -2.41 ± 0.12 | -3.68 ± 0.13
GCCCAGCAAUAUUACGCUAU | -0.309 ± 0.086 | -0.826 ± 0.082
GCCCAGCAAUAUUACGCUCA | -0.055 ± 0.1 | -0.789 ± 0.08
GCCCAGCAAUAUUACGCUGA | -0.784 ± 0.18 | -1.08 ± 0.13
GCCCAGCAAUAUUACGGAUU | -0.0391 ± 0.08 | 0.0408 ± 0.057
GCCCAGCAAUAUUACGUAAU | -0.32 ± 0.067 | -0.747 ± 0.06
GCCCAGCAAUAUUACGUCAC | -2.64 ± 0.22 | -2.87 ± 0.13
GCCCAGCAAUAUUACGUGCC | -3.18 ± 0.2 | -3.75 ± 0.32
GCCCAGCAAUAUUACGUGGG | -3.07 ± 0.2 | -3.2 ± 0.12
GCCCAGCAAUAUUACGUUAU | -1.29 ± 0.1 | -1.17 ± 0.079
GCCCAGCAAUAUUACGUUCA | -0.504 ± 0.11 | -2.45 ± 0.16
GCCCAGCAAUAUUACGUUUC | -1.37 ± 0.1 | -1.36 ± 0.078
GCCGAGCAAUAUUACGAAGC | -1.8 ± 0.46 | -2.8 ± 0.33
GCCGAGCAAUAUUACGAUAC | -1.59 ± 0.35 | –
GCCGAGCAAUAUUACGAUCG | – | -2.36 ± 0.26
GCCGAGCAAUAUUACGCAAU | -1.35 ± 0.15 | -2.79 ± 0.2
GCCGAGCAAUAUUACGCACU | -0.365 ± 0.13 | -1.64 ± 0.11
GCCGAGCAAUAUUACGCAUC | -1.48 ± 0.28 | -2.54 ± 0.24
GCCGAGCAAUAUUACGCCGU | -1.75 ± 0.19 | -3.28 ± 0.29
GCCGAGCAAUAUUACGCUAA | -2.62 ± 0.23 | -1.86 ± 0.2

Sequence | self-splicing fitness (ln) (37 °C) | self-splicing fitness (ln) (30 °C)
GCCGAGCAAUAUUACGCUCU | -0.494 ± 0.21 | -0.992 ± 0.2
GCCGAGCAAUAUUACGCUUU | -0.235 ± 0.093 | -1.61 ± 0.082
GCCGAGCAAUAUUACGUACC | -0.678 ± 0.16 | -2.15 ± 0.13
GCCGAGCAAUAUUACGUAGA | -2.07 ± 0.14 | -2.74 ± 0.13
GCCGAGCAAUAUUACGUAGG | -0.729 ± 0.25 | -3.39 ± 0.21
GCCGAGCAAUAUUACGUGCG | -1.28 ± 0.098 | -2.17 ± 0.11
GCCGAGCAAUAUUACGUUAU | -2.43 ± 0.18 | -2.06 ± 0.098
GCCGAGCAAUAUUACGUUGU | -1.54 ± 0.12 | -2.48 ± 0.12
GCCUAGCAAUAUUACGAAAU | -0.297 ± 0.13 | -2.34 ± 0.12
GCCUAGCAAUAUUACGACCU | -1.02 ± 0.27 | -1.35 ± 0.23
GCCUAGCAAUAUUACGACGA | -0.629 ± 0.13 | -1.46 ± 0.14
GCCUAGCAAUAUUACGAUAU | -0.907 ± 0.097 | -2.23 ± 0.11
GCCUAGCAAUAUUACGAUCU | -0.334 ± 0.071 | -2.18 ± 0.079
GCCUAGCAAUAUUACGCAAC | -1.21 ± 0.13 | -1.78 ± 0.14
GCCUAGCAAUAUUACGCCAA | -3.18 ± 0.29 | -2.38 ± 0.32
GCCUAGCAAUAUUACGCGAU | -1.68 ± 0.16 | -3.87 ± 0.24
GCCUAGCAAUAUUACGCGCA | -0.303 ± 0.11 | -1.21 ± 0.12
GCCUAGCAAUAUUACGCGCU | -0.269 ± 0.11 | -2.19 ± 0.13
GCCUAGCAAUAUUACGCGGC | -2 ± 0.28 | -3.58 ± 0.35
GCCUAGCAAUAUUACGCGGG | -3.1 ± 0.43 | -1.74 ± 0.17
GCCUAGCAAUAUUACGGAAA | -0.985 ± 0.26 | -0.507 ± 0.27
GCCUAGCAAUAUUACGGAGA | -1.06 ± 0.11 | -1.16 ± 0.11
GCCUAGCAAUAUUACGGCCC | -0.535 ± 0.27 | -3.4 ± 0.48
GCCUAGCAAUAUUACGGGCG | -1.02 ± 0.097 | -2.03 ± 0.1
